From US4839466A, “Insulin activity messengers” (The Rockefeller University, priority 1987, dated 1989)

Key:
[1] = test system: PI-glycan PLC; test: Effects of cations and sulfhydryl reagents on PI-glycan PLC (mfVSG hydrolysis); type: biochemical, rat; settings: 25 nM mfVSG, 2 hr at 37° C.; for Activity (dpm/2 hr): no addition 3970
Method: Assay of PI-glycan PLC Activity. Enzyme activity was assayed at 37° C. in a final volume of 1 ml with [^3 H]myristate-labeled C-terminal glycopeptide in 25 mM Tris, pH 7.4, with 0.1% NP-40. The reaction was terminated after 1 hr. by extraction with 1 ml toluene. Organic and aqueous phases were separated by brief centrifugation at 100 ×g and the organic phase was taken to dryness in vacuo, redissolved in 40 ul of chloroform:methanol (2:1) containing 5 ug dimyristylglycerol, and spotted on a Silica G TLC plate which had been preactivated by baking at 125° C. for 1-2 hr. The plate was developed twice in petroleum ether:diethyl ether:acetic acid (70:30:2) and then stained with iodine vapor to localize DAG. The DAG region was scraped and counted. Alternatively, 0.5 ml of the organic phase was taken directly for liquid scintillation counting.
Samples from each stage of the purification were incubated in 1 ml with 25 nM [3H]mfVSG for 2 hr at 37° C. and then extracted twice with 1 ml chloroform:methanol (200:1). The organic phases were taken to dryness and analyzed by TLC as described under Experimental Procedures. Each assay was performed in duplicate and was consistant within 10%.
Purified PI-glycan PLC was incubated with 25 nM mfVSG in the presence of the indicated reagents for 2 hr at 37° C. Enzyme activity was assayed as described for Table VIII. All assays were performed in duplicate variance was less than 10%.

[2] = test system: BC3 Hl cells; test: Diacylglycerol and phosphatidic acid production in labeled BC3 Hl myocytes; type: cell-based, murine
Method: FIG. 12--Time Course of Diacylglycerol and Phosphatidic Acid Production in Response to Insulin. Myocytes were incubated for 20 hrs. in serum free DMEM with [9,10^3 H]myristic acid (New England Nuclear), complexed 1:1 to bovine serum albumin. Insulin was added to cells in fresh media for the designated intervals, and reactions were stopped by removal of media and addition of 1 ml chloroform/methanol/1N HCl (200:100:1). 0.6ml H2 O was added and upper aqueous phases were discarded following centrifugation at 500×g for 5 minutes. The lower, organic phases were dried under N2 and resuspended in 1 ml diethyl ether followed by addition of 1 […]. The upper ether phase was aspirated and the lower phase reextracted with 1 ml diethyl ether. The combined ether phases, containing diacylglycerol, were dried under N2, resuspended in chloroform and spotted on silica gel G plates which were preactivated at 60° C. for 1 hr. Plates were twice developed in petroleum ether/diethyl ether/glacial acetic acid (70:30:2). Five ug of unlabeled dimyristoylglycerol were added to each sample. Spots were visualized by iodine staining. To the lower aqueous phases from the ether extraction were added 1 ml of chloroform/methanol (2:1). Following centrifugation, the resulting upper aqueous phases were discarded and the lower organic phases dried under N2, resuspended in chloroform/methanol/H2 O (9:7:2) and spotted on "soft plus" silica gel plates. These were developed in chloroform/pyridine/70% formic acid (50:30:7), and phosphatidic acid was identified by an iodine stained standard. Lipids were scraped and radioactivity determined in a liquid scintillation counter.
BC3 Hl cells were cultured on collagen coated multiwell plates or petri dishes in Dulbecco's minimal essential medium (DMEM) supplemented with 20% Nu serum or 10% fetal calf serum. Cells were grown to maximal density and confluence, at which time they become responsive to insulin. Radiolabeled precursors were added for 20 hrs. in serum-free medium. [^3 H]Myristic and arachidonic acids were complexed 1:1 to bovine serum albumin prior to addition.
Following preincubations with the appropriate isotopes, cells were resuspended in DMEM without serum and treated with 10 nM insulin at the designated intervals. Reactions were terminated by the addition of 1 ml chloroform/methanol/1N HCl (200:100:1), followed by 0.5 ml 10 mM formic acid. Following centrifugation at 500 x g for 5 min., the upper phase was discarded. For phospholipid analyses, the lower, organic phase was dried under N2, resuspended in chloroform/methanol/H2 O (9:7:2) and spotted on oxalate impregnated silica gel G plates. These were sequentially developed in chloroform/acetone/methanol/glacial acidic acid/H2 O (10:4:2:2:1) and chloroform/methanol/4N NH4 OH (45:35:10). One cm regions were scraped and eluted with chloroform/methanol (2:1) and counted. Phosphoinositide standards were identified by iodine staining.
For analysis of neutral lipids, the chloroform/methanol organic phases were dried under N2 and resuspended in 1 ml diethyl ether followed by addition of 1 ml 50 mM formic acid. The upper ether phase was aspirated and the lower aqueous phase was reextracted with 1 ml diethyl ether. The pooled ether phases were dried under N2, resuspended in chloroform and spotted on silica gel G plates which were preactiviated at 60° C. for 1 hr. Plates were twice developed in petroleum ether/diethyl ether/glacial acetic acid (70:30:2). Five ug of unlabeled dimyristoyl glycerol, myristic acid and monomyristoyl glycerol were added as carriers to each sample.

[3] = test system: cAMP phosphodiesterase; test: Generation of PDE messenger from liver membranes by insulin or PI-PLC; extracts assayed on cAMP phosphodiesterase; type: biochemical, rat
Method: These were generated from bovine liver particulate fractions by a modification of previously described methods. Particulate fraction was prepared from 100 g of bovine liver, and suspended in […] ammonium bicarbonate, pH 7.4. (Buffer A) at a final concentration of 2-4 mg protein/ml. This solution was incubated with […] for 10 min at 37° C., acidified to pH 4.0 with formic acid and sedimented at 45,000 g for 20 min. An equal volume of chloroform/methanol (2:1) was added to the supernatant, and the upper phase was aspirated and methanol was evaporated.
In the tests the results of which are tabulated above, liver membranes were treated as indicated for 10 min at 37° C., centrifuged and supernatants were extracted and purified up to and including the Dowex 50WX-4 step as described earlier herein under "Experimental Frocedures".
Partially purified extracts were assayed for ability to modulate cAMP phosphodiesterase. Basal activity was 56.2 pmoles/mg protein^-1 -min^-1.

[4] = PI-PLC treatment of lipids extracted from labeled BC3 Hl cells, TLC; type: biochemical, murine; settings: PI-PLC 30 min.
Method: FIG. 8--SAX HPLC of Radiolabeled Mediators Produced by PI-PLC. Cells were prelabeled as described in FIG. 7, extracted in chloroform/methanol/1N HCl (200:100:1) and centrifuged at 1000 x g for 10 min. The supernatant was dried under N2 and resuspended in 1 mil of 50 mM ammonium bicarbonate, pH 7.4. These solutions were treated with 0.1 ug/ml PI-PLC from S. aureus for 30 min. at 37° C. Reactions were terminated by reextraction with 1 ml of chloroform/methanol/1N HCl (200:100:1) and aqueous and organic phases separated. The aqueous phases were then purified as described in FIG. 7 and chromatographed on SAX HPLC column, eluted as described.
FIG. 10--Thin Layer Chromatography of the Radiolabeled Precursor After PI-PLC Treatment. Cells were labeled, extracted, treated with or without PI-PLC and reextracted as described in FIG. 8. Organic phases were chromatographed on thin layer plates as detailed in FIG. 9.

[5] = test system: cAMP phosphodiesterase; test: Generation of an enzyme modulator from liver plasma membranes, cAMP phosphodiesterase readout; type: biochemical, rat
Method: (§1) Purification of the Enzyme Modulator. Bovine liver particulate fraction was prepared as described previously [Saltiel A. R., (1984) "Preparation and Characterization of Putative Insulin Mediators from Liver", METHODS IN DIABETES […], eds. J. Larner, S. Pohl, I:73]. Solutions were incubated in 5 mM ammonium bicarbonate, pH 7.4 with 10 nM insulin or 1 ug/ml PI-PLC as described in the figure legends. Following incubation, solutions were acidified to pH 4.0 and centrifuged at 35,000 x g for 20 minutes. Resulting supernatants were extracted with chloroform/methanol (2:1). The upper aqueous phase was aspirated and methanol was evaporated. Enzyme modulating activities were purified as described in Publication No. 6 listed earlier herein. Briefly, the extract was chromatographed on DEAE-Cellulose and eluted with 0.25M triethylamine (TEA)-formate, pH 3.75. This was followed by chromatography on C-18 reversed phase resin, in the same buffer, followed by Dowex 50W X-4 in 50 mM TEA-formate, pH 3.0. The resulting eluate was lyophilized, resuspended in 50 mM TEA-formate, pH 4.5 and sequentially chromatographed on QAE-Sephadex, SAX HPLC and a P-2 gel filtration column. Only the cyclic inositol phosphate derivative residing in Peak I was examined.
(§2) Enzyme Assays. The low Km cAMP PDE was assayed in a rat adipocyte particulate fraction as previously described [Saltiel, A. R., Steigerwalt,R. W., (1986) "Purification of Putative Insulin-Sensitive cAMP Phosphodiesterase or its Catalytic Domain From Rat Adipocytes", DIABETES, 35:698] and as later modified in Publication No. 6. Activity was linear throughout 20 min. and proportional to protein concentration. Only the low Km species of the enzyme was present in this fraction. PDH activity was assayed in liver mitoplasts after preincubation with ATP as previously described [Saltiel et al., (1982) PROC. NATL. ACAD. SCI. U.S.A., 79:3513.]. Adenylate cyclase activity was also assayed in purified adipocyte plasma membranes. For all enzyme assays, variability was less than 5%.
(§3) Liver membranes were treated with or without 10 nM insulin or 1 ug/ml PI-PLC for 10 min. at 37° C. Following cetrifugation, the supernatants were extracted and purified up to and including the SAX HPLC step. Purified extracts were added to enzyme assays at a final dilution of 1:10. Enzyme activities were assayed with no additions or after addition of purified extracts from control, insulin or PIPPLC treated membrane. Percent of basal activity is expressed in parentheses. ^1 expressed as pmoles/mg protein-min. ^2 expressed as nmoles/mg protein-min.

[6] = test system: Pyruvate Dehydrogenase; test: Generation of an enzyme modulator from liver plasma membranes, pyruvate dehydrogenase readout; type: biochemical, rat
Method: as §1, §2, §3

[7] = test system: Adenylate Cyclase; test: Generation of an enzyme modulator from liver plasma membranes, adenylate cyclase readout; type: biochemical, rat
Method: as §1, §2, §3

[8] = cells incubated with [3H]arachidonic acid

With `OCCS` [2-mercaptoethanol] as the molecule, how does the “% control” value ([1]; addition at 50 mM) read?
The value was 190 % control.

And the “Activity (dpm/2 hr)” value ([1]; addition at 50 mM)?
The value was 7564 dpm/2 hr.

Which “% control” value ([1]; addition at 100 uM) does the source give for `O=C(O)CN(CCOCCOCCN(CC(=O)O)CC(=O)O)CC(=O)O` [EGTA] here?
Its value is 148 % control.

And the “Activity (dpm/2 hr)” value ([1]; addition at 100 uM)?
Its value is 5900 dpm/2 hr.

For `[Cl][Hg][Cl]` [HgCl2], which “% control” value ([1]; addition at 100 uM) is on record?
Its value is 17 % control.

What about the “Activity (dpm/2 hr)” value ([1]; addition at 100 uM) of the same molecule?
The value was 677 dpm/2 hr.

Which “change in [3H]myristoyl diacylglycerol” value ([2]; [3H]myristate labeled cells) does the source give for `CNC[C@H](O)c1ccc(O)c(O)c1` [epinephrine] here?
Its value is “no significant change”.

And the “change in [3H]arachidonyl diacylglycerol” value [2, 8]?
The value was “rapid increase”.

And the “time of maximal increase in [3H]arachidonyl diacylglycerol” value [2, 8]?
The value was 1 min.

B1: PI-PLC: purified phosphatidylinositol specific phospholipase C from S. aureus (protein, UniProt P45723 27-312, looked up)
1-phosphatidylinositol …: DGKHLTEINIPGSHDSGSFTLKDPVKSVWAKTQDKDYLTQMKSGVRFFDIRGRASADNMISVHHGMVYLHHELGKFLDDAKYYLSAYPNETIVMSMKKDYDSDSKVTKTFEEIFREYYYNNPQYQNLFYTGSNANPTLKETKGKIVLFNRMGGTYIKSGYGADTSGIQWADNATFETKINNGSLNLKVQDEYKDYYDKKVEAVKNLLAKAKTDSNKDNVYVNFLSVASGGSAFNSTYNYASHINPEIAKTIKANGKARTGWLIVDYAGYTWPGYDDIVSEIIDSNK
What does the source list for B1?
stimulation/increase of production of PDE modulating activity from membranes ([3]; after partial purification, PI-PLC 1.0 ug/ml): 6 fold; PDE Activity ([3]; extract of liver membranes treated 10 min at 37° C. (1.0 nM Insulin, PI-PLC), purified up to Dowex 50WX-4, basal 56.2, untreated membranes 78.5): 191.3 pmol mg protein^-1 min^-1; decrease in [3H]glucosamine labeling of the precursor spot [4]: 40%; decrease in [3H]inositol labeling of the precursor spot [4]: 60%; depletion of PI [4]: 50%; cAMP Phosphodiesterase, percent of basal activity ([5]; as E41): 311.1%; cAMP Phosphodiesterase activity ([5]; extract of liver membranes treated with 10 nM insulin or 1 ug/ml PI-PLC 10 min. 37° C., purified to SAX HPLC, dilution 1:10, no addition 61.7±4.2, control membranes 78.5±5.6): 192±5 pmoles/mg protein-min.; Pyruvate Dehydrogenase, percent of basal activity ([6]; as E43): 296.6%; Pyruvate Dehydrogenase activity ([6]; extract as E41, no addition 1.77±0.07, control membranes 2.45±0.20): 5.25±0.40 nmoles/mg protein-min.; Adenylate Cyclase, percent of basal activity ([7]; as E45): 25.0%; Adenylate Cyclase activity ([7]; extract as E41, no addition 272±14, control membranes 210±4): 68.7±7.6 pmoles/mg protein-min.
